Source: article PMC11602160, “Modulation of UPF1 catalytic activity upon interaction of SARS-CoV-2 Nucleocapsid protein with factors involved in nonsense mediated-mRNA decay”

Columns and labels:
[1] = target: Nfl (Nucleocapsid full-length) (SARS-CoV-2, UniProt P0DTC9 1-419); test: fluorescence anisotropy; 1 mM Mg2+; Fluorescence anisotropy: 20 mM HEPES pH 7.5, 100 mM NaCl, 1 mM MgCl2, 100 µg/ml BSA, 5 nM RNA, 25 °C, 1 h; one-site fit with Hill slope. SEC conditions not in the material; conditions: protein: recombinant; tags: His6 or His-GST fusion, cleavable (TEV/3C); chain copies: 2; label: 5' 6-FAM; single strand
[2] = target: T1, UPF1 (CH-helicase core) (Homo sapiens, UniProt Q92900 115-352+364-925, internal_change); test: as above; conditions: protein: recombinant; tags: His6 or His-GST fusion, cleavable (TEV/3C); label: 5' 6-FAM; single strand
T1 sequence: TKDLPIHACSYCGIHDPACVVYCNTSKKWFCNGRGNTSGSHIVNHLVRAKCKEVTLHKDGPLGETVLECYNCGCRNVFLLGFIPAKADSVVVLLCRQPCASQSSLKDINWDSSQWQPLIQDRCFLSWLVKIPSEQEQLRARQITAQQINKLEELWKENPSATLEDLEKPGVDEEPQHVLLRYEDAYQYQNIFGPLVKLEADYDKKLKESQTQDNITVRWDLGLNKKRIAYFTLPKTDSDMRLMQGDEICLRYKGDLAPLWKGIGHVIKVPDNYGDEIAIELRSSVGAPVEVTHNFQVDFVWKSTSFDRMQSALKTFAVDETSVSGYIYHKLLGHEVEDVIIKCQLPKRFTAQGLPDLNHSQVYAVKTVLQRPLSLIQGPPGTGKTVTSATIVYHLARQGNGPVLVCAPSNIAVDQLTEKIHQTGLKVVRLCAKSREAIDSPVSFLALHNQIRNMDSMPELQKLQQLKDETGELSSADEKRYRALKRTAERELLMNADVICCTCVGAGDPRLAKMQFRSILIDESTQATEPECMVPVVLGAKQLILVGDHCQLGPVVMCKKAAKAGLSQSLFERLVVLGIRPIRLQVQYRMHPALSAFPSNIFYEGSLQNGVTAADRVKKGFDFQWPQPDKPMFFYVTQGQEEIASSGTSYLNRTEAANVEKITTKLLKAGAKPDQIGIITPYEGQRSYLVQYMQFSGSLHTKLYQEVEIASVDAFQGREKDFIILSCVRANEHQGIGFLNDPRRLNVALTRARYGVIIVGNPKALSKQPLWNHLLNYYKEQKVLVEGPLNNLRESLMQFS

Binder UUUUUUUUUUUU (ssRNA) [U12 (12-mer poly-U RNA)] has a Kd [1] of 82 nM and a Kd [2] of ~50 nM.
